Patent US20100209422A1

Assays:
[1] = molecular target: protofibrillar (PF) form of Aβ42 (human); test: SPR (BIAcore), antibody immobilized, PF Aβ42 injected
[2] = molecular target: low-molecular weight (LMW) form of Aβ42 (human); test: SPR (BIAcore), antibody immobilized, LMW Aβ42 injected
[3] = molecular target: protofibrillar (PF) form of Aβ42 (human); test: SPR (BIAcore), ratio of PF binding to LMW binding

Chain of low-molecular weight (LMW) form of Aβ42 (human) (peptide, as listed by the source): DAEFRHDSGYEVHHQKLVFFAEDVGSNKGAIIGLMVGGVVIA
Chain of protofibrillar (PF) form of Aβ42 (human) (peptide, as listed by the source): as above

Row | BIACORE Binding Analysis PF [1] | BIACORE Binding Analysis LMW [2] | Ratio (PF/LMW) [3] | Substance
1 | 541 | 400 | 1.4 | 6E10 (antibody)
2 | 68.4 | 69.9 | 1 | 82E1 (antibody)
3 | 403 | 425 | 0.9 | 3D6 anti-Aβ antibody
4 | 340 | 229 | 1.5 | monoclonal antibody 4G8
